For experiment [1], the target named is T1, CD28 endogenously expressed on Jurkat/IL2 reporter cells (human, UniProt P10747 19-220).
T1 construct: also called Jurkats (CD28)
Briefly: flow cytometry, Jurkat cells (CD28); MFI relative to WT CD80 ECD-Fc. In general terms: A flow cytometer gives signals particle by particle.

Experiment [2] addresses T2, human PD-L1, full-length, on CHO cells (human, UniProt Q9NZQ7 19-290).
T2 construct: also called huPD-L1; CD274
The experiment in a line: flow cytometry, CHO cells stably expressing PD-L1.

The target of experiment [3] is T3, human CTLA4 (CTLA-4), full-length, on CHO cells (human, UniProt P16410 36-223).
T3 construct: also called huCTLA4
T3 sequence (P16410 36-223): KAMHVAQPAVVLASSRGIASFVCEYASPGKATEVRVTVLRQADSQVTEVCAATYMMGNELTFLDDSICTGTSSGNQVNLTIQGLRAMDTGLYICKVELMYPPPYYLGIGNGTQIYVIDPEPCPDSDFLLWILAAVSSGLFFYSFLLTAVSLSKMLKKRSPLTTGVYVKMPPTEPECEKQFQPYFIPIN
Briefly: flow cytometry, CHO cells stably expressing CTLA4.

Experiment [4] deals with T2, human PD-L1, full-length, on CHO cells. Briefly: flow cytometry, CHO/PD-L1 cells; MFI relative to WT CD80 ECD-Fc.
The target is the same in experiment [5]. Briefly: flow cytometry; PD-L1 MFI over CD28 MFI.
The target in experiment [6] is T1, CD28 endogenously expressed on …. Briefly: flow cytometry, Jurkat cells (CD28).
Experiment [7] deals with T3, human CTLA4 (CTLA-4), full-length, on …. Briefly: flow cytometry, CHO/CTLA4 cells; MFI relative to WT CD80 ECD-Fc.

T2 sequence (Q9NZQ7 19-290): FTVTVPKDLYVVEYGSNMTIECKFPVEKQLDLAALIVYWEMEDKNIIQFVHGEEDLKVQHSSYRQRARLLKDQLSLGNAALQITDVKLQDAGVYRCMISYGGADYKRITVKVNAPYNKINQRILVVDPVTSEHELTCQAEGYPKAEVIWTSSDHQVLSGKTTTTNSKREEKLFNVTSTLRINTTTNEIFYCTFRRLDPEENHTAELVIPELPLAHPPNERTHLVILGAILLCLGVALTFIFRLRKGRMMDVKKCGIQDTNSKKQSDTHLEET

B1: variant CD80 IgV-Fc D46V/V68M (Fc fusion, not shown: small tags and cut ends; a dimerising Fc or GST)
chain: VIHVTKEVKEVATLSCGHNVSVEELAQTRIYWQKEKKMVLTMMSGVMNIWPEYKNRTIFDITNNLSIMILALRPSDEGTYECVVLKYEKDAFKREHLAEVTLSVKAD
Consider B1, for which the “Fold change to WT CD80” value worked out at 0.8 fold in experiment [1], 17.7 fold in experiment [4] and 0.1 fold in experiment [7]. In addition, the “MFI at 33.3 nM” value turned out to be 2270 MFI in experiment [2], 5330 MFI in experiment [3] and 556 MFI in experiment [6]. Also, the “Ratio of PDL1:CD28” value in experiment [5] was 4.1 ratio.

B2: variant CD80 IgV-Fc E35D (Fc fusion, not shown: small tags and cut ends; a dimerising Fc or GST)
chain: VIHVTKEVKEVATLSCGHNVSVEELAQTRIYWQKDKKMVLTMMSGDMNIWPEYKNRTIFDITNNLSIVILALRPSDEGTYECVVLKYEKDAFKREHLAEVTLSVKAD
For the molecule B2, the “Fold change to WT CD80” value in experiment [1] came to 0.2 fold; in experiment [4] it was 20.2 fold; in experiment [7], 1.1 fold. Moreover, the results for the “MFI at 33.3 nM” value in experiment [2], in experiment [3] and in experiment [6] were 2580 MFI, 42900 MFI and 134 MFI, respectively. For the same molecule, in experiment [5], the “Ratio of PDL1:CD28” value turned out to be 19.3 ratio.

B3: variant CD80 IgV-Fc M47V (Fc fusion, not shown: small tags and cut ends; a dimerising Fc or GST)
chain: VIHVTKEVKEVATLSCGHNVSVEELAQTRIYWQKEKKMVLTMMSGDVNIWPEYKNRTIFDITNNLSIVILALRPSDEGTYECVVLKYEKDAFKREHLAEVTLSVKAD
For B3, the entries for the “Fold change to WT CD80” value in experiment [1], in experiment [4] and in experiment [7] were 0.1 fold, 18.1 fold and 0.8 fold, respectively. For the same molecule, the “MFI at 33.3 nM” value came to 2320 MFI in experiment [2], 33300 MFI in experiment [3] and 68.7 MFI in experiment [6]. Also, the “Ratio of PDL1:CD28” value in experiment [5] came to 33.7 ratio.

B4: variant CD80 IgV-Fc E35D/D46V/L85Q (Fc fusion, not shown: small tags and cut ends; a dimerising Fc or GST)
chain: VIHVTKEVKEVATLSCGHNVSVEELAQTRIYWQKDKKMVLTMMSGVMNIWPEYKNRTIFDITNNLSIVILALRPSDEGTYECVVQKYEKDAFKREHLAEVTLSVKAD
For B4, the “Fold change to WT CD80” value was determined as 0.3 fold in experiment [1], 31.6 fold in experiment [4] and 1.2 fold in experiment [7]. Moreover, the “MFI at 33.3 nM” value is 4040 MFI in experiment [2], 48000 MFI in experiment [3] and 196 MFI in experiment [6]. Besides, in experiment [5], the “Ratio of PDL1:CD28” value was determined as 20.6 ratio.

B5: variant CD80 IgV-Fc M47L/V68M/L85Q (Fc fusion, not shown: small tags and cut ends; a dimerising Fc or GST)
chain: VIHVTKEVKEVATLSCGHNVSVEELAQTRIYWQKEKKMVLTMMSGDLNIWPEYKNRTIFDITNNLSIMILALRPSDEGTYECVVQKYEKDAFKREHLAEVTLSVKAD
As to B5, the “Fold change to WT CD80” value in experiment [1] was 0.1 fold; in experiment [4], 31.6 fold; in experiment [7], 0.3 fold. In addition, the results for the “MFI at 33.3 nM” value in experiment [2], in experiment [3] and in experiment [6] were 4040 MFI, 11100 MFI and 60.9 MFI, respectively. In experiment [5], the “Ratio of PDL1:CD28” value was 66.3 ratio.

B6: variant CD80 IgV-Fc E35D/M47L (Fc fusion, not shown: small tags and cut ends; a dimerising Fc or GST)
chain: VIHVTKEVKEVATLSCGHNVSVEELAQTRIYWQKDKKMVLTMMSGDLNIWPEYKNRTIFDITNNLSIVILALRPSDEGTYECVVLKYEKDAFKREHLAEVTLSVKAD
On to B6, for which the “Fold change to WT CD80” value in experiment [1] was 0.6 fold; in experiment [4], 58.8 fold; in experiment [7] it was 1.2 fold. In addition, the “MFI at 33.3 nM” value in experiment [2] came to 7530 MFI; in experiment [3] it was 48000 MFI; in experiment [6] it was 411 MFI. Besides, in experiment [5], the “Ratio of PDL1:CD28” value was determined as 18.3 ratio.

B7: variant CD80 IgV-Fc E35D/N48K (Fc fusion, not shown: small tags and cut ends; a dimerising Fc or GST)
chain: VIHVTKEVKEVATLSCGHNVSVEELAQTRIYWQKDKKMVLTMMSGDMKIWPEYKNRTIFDITNNLSIVILALRPSDEGTYECVVLKYEKDAFKREHLAEVTLSVKAD
For the molecule B7, the “Fold change to WT CD80” value in experiment [1] came to 0.3 fold; in experiment [4], 51.1 fold; in experiment [7], 1 fold. Moreover, the “MFI at 33.3 nM” value in experiment [2] amounted to 6540 MFI; in experiment [3], 41300 MFI; in experiment [6], 194 MFI. Further, the “Ratio of PDL1:CD28” value in experiment [5] worked out at 33.7 ratio.

B8: variant CD80 IgV-Fc E35D/M47V (Fc fusion, not shown: small tags and cut ends; a dimerising Fc or GST)
chain: VIHVTKEVKEVATLSCGHNVSVEELAQTRIYWQKDKKMVLTMMSGDVNIWPEYKNRTIFDITNNLSIVILALRPSDEGTYECVVLKYEKDAFKREHLAEVTLSVKAD
For B8, the “Fold change to WT CD80” value in experiment [1] came out at 0.7 fold; in experiment [4], 53.1 fold; in experiment [7], 1.1 fold. Also, the “MFI at 33.3 nM” value in experiment [2] came to 6800 MFI; in experiment [3], 44600 MFI; in experiment [6], 501 MFI. Besides, in experiment [5], the “Ratio of PDL1:CD28” value turned out to be 13.6 ratio.

B9: variant CD80 IgV-Fc E35D/V68M/L85Q (Fc fusion, not shown: small tags and cut ends; a dimerising Fc or GST)
chain: VIHVTKEVKEVATLSCGHNVSVEELAQTRIYWQKDKKMVLTMMSGDMNIWPEYKNRTIFDITNNLSIMILALRPSDEGTYECVVQKYEKDAFKREHLAEVTLSVKAD
For B9, the “Fold change to WT CD80” value amounted to 0.1 fold in experiment [1], 46.6 fold in experiment [4] and 1.1 fold in experiment [7]. For the same molecule, the “MFI at 33.3 nM” value is 5970 MFI in experiment [2], 42800 MFI in experiment [3] and 76.2 MFI in experiment [6]. The “Ratio of PDL1:CD28” value in experiment [5] is 78.4 ratio.

B10: variant CD80 IgV-Fc E35D/M47L/V68M/L85Q (Fc fusion, not shown: small tags and cut ends; a dimerising Fc or GST)
chain: VIHVTKEVKEVATLSCGHNVSVEELAQTRIYWQKDKKMVLTMMSGDLNIWPEYKNRTIFDITNNLSIMILALRPSDEGTYECVVQKYEKDAFKREHLAEVTLSVKAD
Turning to B10, the “Fold change to WT CD80” value in experiment [1] stood at 0.2 fold; in experiment [4], 120 fold; in experiment [7] it was 0.7 fold. Moreover, the “MFI at 33.3 nM” value was 15300 MFI in experiment [2], 28100 MFI in experiment [3] and 159 MFI in experiment [6]. Moreover, the “Ratio of PDL1:CD28” value in experiment [5] is 96.3 ratio.

B11: variant CD80 IgV-Fc E35D/M47L/L85Q (Fc fusion, not shown: small tags and cut ends; a dimerising Fc or GST)
chain: VIHVTKEVKEVATLSCGHNVSVEELAQTRIYWQKDKKMVLTMMSGDLNIWPEYKNRTIFDITNNLSIVILALRPSDEGTYECVVQKYEKDAFKREHLAEVTLSVKAD
Regarding B11, the results for the “Fold change to WT CD80” value in experiment [1], in experiment [4] and in experiment [7] were 0.1 fold, 47.6 fold and 0.3 fold, respectively. In addition, the “MFI at 33.3 nM” value in experiment [2] was determined as 6100 MFI; in experiment [3] it was 12900 MFI; in experiment [6], 46.3 MFI. Further, the “Ratio of PDL1:CD28” value in experiment [5] came to 132 ratio.

B12: variant CD80 IgV-Fc E35D/K89N (Fc fusion, not shown: small tags and cut ends; a dimerising Fc or GST)
chain: VIHVTKEVKEVATLSCGHNVSVEELAQTRIYWQKDKKMVLTMMSGDMNIWPEYKNRTIFDITNNLSIVILALRPSDEGTYECVVLKYENDAFKREHLAEVTLSVKAD
With B12, the “Fold change to WT CD80” value in experiment [1] worked out at 0.3 fold; in experiment [4] it was 5.9 fold; in experiment [7], 0.5 fold. For the same molecule, the “MFI at 33.3 nM” value in experiment [2] stood at 757 MFI; in experiment [3], 21800 MFI; in experiment [6] it was 236 MFI. Further, the “Ratio of PDL1:CD28” value in experiment [5] is 3.2 ratio.

B13: variant CD80 IgV-Fc E35D/D46V/M47L/V68M/L85Q (Fc fusion, not shown: small tags and cut ends; a dimerising Fc or GST)
chain: VIHVTKEVKEVATLSCGHNVSVEELAQTRIYWQKDKKMVLTMMSGVLNIWPEYKNRTIFDITNNLSIMILALRPSDEGTYECVVQKYEKDAFKREHLAEVTLSVKAD
On to B13, for which the “Fold change to WT CD80” value in experiment [1] is 0.7 fold; in experiment [4] it was 222 fold; in experiment [7] it was 0.6 fold. Besides, the figures for the “MFI at 33.3 nM” value in experiment [2], in experiment [3] and in experiment [6] were 28400 MFI, 26200 MFI and 464 MFI, respectively. Further, in experiment [5], the “Ratio of PDL1:CD28” value is 61.2 ratio.

B14: variant CD80 IgV-Fc E35D/D46V/M47L/L85Q (Fc fusion, not shown: small tags and cut ends; a dimerising Fc or GST)
chain: VIHVTKEVKEVATLSCGHNVSVEELAQTRIYWQKDKKMVLTMMSGVLNIWPEYKNRTIFDITNNLSIVILALRPSDEGTYECVVQKYEKDAFKREHLAEVTLSVKAD
Consider B14, for which the “Fold change to WT CD80” value in experiment [1] stood at 0.4 fold; in experiment [4], 58.8 fold; in experiment [7] it was 0.9 fold. Moreover, the “MFI at 33.3 nM” value in experiment [2] came to 7520 MFI; in experiment [3], 38200 MFI; in experiment [6], 268 MFI. Further, in experiment [5], the “Ratio of PDL1:CD28” value was determined as 28.1 ratio.

B15: variant CD80 IgV-Fc E35D/M47L/V68M (Fc fusion, not shown: small tags and cut ends; a dimerising Fc or GST)
chain: VIHVTKEVKEVATLSCGHNVSVEELAQTRIYWQKDKKMVLTMMSGDLNIWPEYKNRTIFDITNNLSIMILALRPSDEGTYECVVLKYEKDAFKREHLAEVTLSVKAD
Take B15: the “Fold change to WT CD80” value in experiment [1] worked out at 1.8 fold; in experiment [4], 218 fold; in experiment [7] it was 0.7 fold. Further, the “MFI at 33.3 nM” value in experiment [2] is 27900 MFI; in experiment [3], 28600 MFI; in experiment [6] it was 1240 MFI. Further, in experiment [5], the “Ratio of PDL1:CD28” value came to 22.4 ratio.

B16: variant CD80 IgV-Fc K89N (Fc fusion, not shown: small tags and cut ends; a dimerising Fc or GST)
chain: VIHVTKEVKEVATLSCGHNVSVEELAQTRIYWQKEKKMVLTMMSGDMNIWPEYKNRTIFDITNNLSIVILALRPSDEGTYECVVLKYENDAFKREHLAEVTLSVKAD
Regarding B16, the “Fold change to WT CD80” value worked out at 0.1 fold in experiment [1], 0.4 fold in experiment [4] and 0 fold in experiment [7]. Moreover, the “MFI at 33.3 nM” value in experiment [2] was 52.8 MFI; in experiment [3], 944 MFI; in experiment [6], 56.3 MFI. In experiment [5], the “Ratio of PDL1:CD28” value turned out to be 0.9 ratio.

The values above are taken from patent publication US20210130436A1 (published 2021).
